# Experimental data taken from paper PMC5389561 (Nucleic Acids Research, 2016).
# B1: recombinant polynucleotide phosphorylase (PNPase), untagged (enzyme, S. epidermidis RP62a, UniProt Q5HPR7 1-701, looked up)
# chain: MSQEKKVFKTEWAGRSLTIETGQLAKQANGAVLVRYGDTVVLSTATASKEPRDGDFFPLTVNYEEKMYAAGKIPGGFKKREGRPGDEATLTARLIDRPIRPLFPKGYRHDVQIMNIVLSADPDCSPEMAAMIGSSMALSVSDIPFQGPIAGVNVGYIDGKYVINPSVADKEISRLDLEVAGHKDAVNMVEAGASEITESEMLEAIFFGHEEIKRLVAFQQEIIDHIQPIKQEFVPVERDEDLVEKVKSLTEDKGLKDTVLTFDKQQRDENLDALKEEVVGHFLDEEDPENETLVKEVYAILNDLIKEEVRRLIADEKIRPDGRKVDEIRPLESEVGLLPRAHGSGLFTRGQTQALSVLTLGALGDYQLIDGLGPEVEKRFMHHYNFPNFSVGETGPVRAPGRREIGHGALGERALRYIIPDTQDFPYTIRIVSEVLESNGSSSQASICGSTLALMDAGVPIKAPVAGIAMGLVTRDDSYTILTDIQGMEDALGDMDFKVAGTKDGITAIQMDIKIDGLTREVIEEALEQARQGRLAIMDHMLHTIEQPREELSAYAPKVVTMSINPDKIRDVIGPGGKKINEIIDETGVKLDIEQDGTIFIGAVDQAMINRAKEIIEDITREAEVGQVYHAKVKRIEKYGAFVELFPGKDALLHISQISQERINKVEDVLKIGDTIEVKITEIDKQGRVNASHKVLEQSKN
# Assays:
# [1] = molecular target: Csm2 with a 6-His tag on the N-terminus (Csm2^H6N) (S. epidermidis RP62a); experiment: co-purification
# [2] = molecular target: recombinant Csm3 (untagged) (S. epidermidis); experiment: native gel or EMSA
# [3] = molecular target: Csm5–Smt3 (Csm5 with an N-terminal His10Smt3 tag) (S. epidermidis); experiment: pull-down
# native gel or EMSA = molecular target: the molecule itself; experiment: native gel or EMSA
molecule,measurement,setting,value
"Csm3 (wild type, in the Cas10–Csm complex) (natural protein)",% Csm3 band intensity of the total band intensity of the purified complex,[1],18%
Csm3 D179A (in the Cas10–Csm complex) (natural protein),% Csm3 band intensity of the total band intensity of the purified complex,[1],12%
recombinant Csm3 (untagged) (natural protein),stoichiometry N,[2],6
B1,PNPase signal intensity as % of total signal in the eluate,[3],5.9%
same,stoichiometry N,native gel or EMSA,3
